We go through 20 sequences from the DeepSol protein solubility set.

The nature of this data set: soluble on expression in E. coli; label from the status in PepcDB or PDB records.
Take “MSLEAKNTFDLSGGYVLPGFIDSHAHLLSTGLEQTRLNLFEYEAKIEAIDAIRRYAEKHDKVVAYRWDESRWRDDPTYITASDLDGIVKPVVAFRRDGHMAVANDQAMRSIGQHRPDGIFREEDMQMLDPLVKPGEEEYVQALQTAIGISASLGITGVRDIVDRATYDAYRRIKSNVRIFKVIYAEDLFAGFGSDPSDWGVKTFLDGSLGARTAAHEGWDTKNLKMSEQQFERFCEGTWSRNLPVAVHAIGDLAVRVAAETMHRHAGRQRNSIEHFELVEDGVLDIIDANTIVSAQPNFLEWAGHGGMYQDRLGESWLYRNNPYRDILDKGLKLAFGSDSMPLGPMYGIHYAVNSEFSQQRITFDEAVRSYSEAGSYLIGAENWIGRIETGYSADFAVFNERNIEDRRRLKEAKPLMTIVHGNTIYDASRVDEGHHHHHH”: the “soluble on expression in E. coli” value is “not soluble”.

“MACGLALKRPLQHEYESFLTDETYNGEAKRARTQCPPFRAQMGTIAATLPSTSTFAQKFKEQEESVFQAATLMTRLSRNQLKTYLSSEVKNLRKRKAIPRSNDFDDDGDQRGDGCSSNYSKAYRAPSSPKSGSDSEGEAPSTSVTDRSSAKREFTMANVQMICERLLKQQEIRLRNEFEMVLTKKLDEQHQQYVQFAAEQLNSKCVSTGDDYSYSYLS”: the “soluble on expression in E. coli” value is listed as “not soluble”.

As for “SMSRPDQAARRRAIAAELHVSPTFDARDEAERRIGFVADYLRTAGLRACVLGISGGIDSSTAGRLAQLAVERLRASGYDARFVAMRLPYGAQHDEADARRALAFVRADETLTVDVKPAADAMLAALAAGGLAYLDHAQQDFVLGNIKARERMIAQYAVAGARNGVVIGTDHAAESVMGFFTKFGDGGADVLPLAGLTKRRVRALARMLGADEPLVLKTPTADLETLRPQRPDEHAYGITYEQIDDFLEGKPMDDAVAETVLRFYDATRHKRALPYTMFDWPGHPA”, the “soluble on expression in E. coli” value is “soluble”.

For the sequence “RHLCESRQQAQRWIRAGAVHVNHIPIDKPGTLVAVDATIQVKAKPAYVSRGGEKLAHALGVFPVVVRDRVCLDGGISTGGFTDCLLQAGAQLVYGIDVGYGQVDWKLRQDPRLILRERTNLRYLTPADLYTDDGPRPDLGVVDVSFISLTKVLPALWELLLPPRELIALIKPQFEVGRDRLGKNGVVRDAKARQEAVDQVITAAAALGWQCYGVTPSPILGPAGNQEFLAHFCCGANGVLENEMVS”, the “soluble on expression in E. coli” value is “not soluble”.

In the case of “MKIVKAEVFVTCPGRNFVTLKITTEDGITGLGDATLNGRELSVASYLQDHLCPRLIGRDAHRIEDIWQFFYKGAYWRRGPVTMSAISAVDMALWDIKAKAANMPLYQLLGGASREGVMVYCHTTGHSIDEALDDYARHQELGFKAIRVQCGIPGMKTTYGMSKGKGLAYEPATKGQWPEEQLWSTEKYLDFMPKLFDAVRNKFGFNEHLLHDMHHRLTPIEAARFGKSIEDYRMFWMEDPTPAENQECFRLIRQHTVTPIAVGEVFNSIWDCKQLIEEQLIDYIRTTLTHAGGITGMRRIADFASLYQVRTGSHGPSDLSPVCMAAALHFDLWVPNFGVQEYMGYSEQMLEVFPHNWTFDNGYMHPGDKPGLGIEFDEKLAAKYPYEPAYLPVARLEDGTLWNR”, the “soluble on expression in E. coli” value is on record as “not soluble”.

Take “MSLGINGFTAHAQKLSLIYNTLDSRDMPTRGLYAKAAIEGSAEFLGSDASYRHYEAELKGYFPLKEARYITVARVAYNQTLGSDVPFLERSILGGESTLRGYGRNRFIDSSYFLCNLEERIRLFRWSVFDVNTDWEVAPFIDLGAVMESLDKTRSKNFEFNPGIGFRAVVRPNIVGRVDIGVGNDGPAVFVGLGYPFEGHHHHHH”: the “soluble on expression in E. coli” value is listed as “not soluble”.

As to “MIWIAVDRVGKKFINCSFGSRGTETGQLLWEKLEKKEIGEVMTDHWRAYAAFLPETIHTQSKAETYTVEGYNSILRHFLARLRRKTKCYTKSLEMLKYSVLLLMKYRNRELTIFHASSVKLEHHHHHH”, the “soluble on expression in E. coli” value is “not soluble”.

On to MEEQNANQMLTDILSFMKSGKRAAALEHHHHHH, for which the “soluble on expression in E. coli” value is “soluble”.

As to “MGSDKIHHHHHHKDYKTFPDKYTLSSVDVGGMTAKEAKKAIKKAIDKYQIKVKLDDAEFEMNAEDLGLEYNEKADMQTLINAANRNKVPDKQVKLFNMKKGDEMQNALVDSYITAMTEAQTDSTSNTDNDTDDTKQADKSDAEIFDIKTVVPYRATITYNADAGQFEGVDGVSGDAPIYDKAATKLSSAVKEMKKKAELESSTGYVEGEKAADSDAVKKALKEADAYLDVTVQRHL”, the “soluble on expression in E. coli” value was “not soluble”.

As for “MGSDKIHHHHHHMGDNLILSFRPDLQIKEEAGKIYLQSPVRSLVCQRVSRGLRQLMKTLTTGSGSEDFLSEPVFKEDGAGEVAKFYYHLQQFIERGFISYNVMMEQEILAIYTPFSAAPLYNEKLFKQKQRYRLSRFTYSRRDGQEIILESPLANGRVVLTHWLAAAVLHLLAEACTAGEISMQFPALPKKSLQLFLELLLSAGMLEEVDDAGISAGEGDEVLQQWEFHDLLFHARSRLGPHEQPVGGTYRFWGRIAPLPAVKNPMSGERIKLYRPDMEKLREDDYPFSLVLEERKSIRDYADEPISVQQLGEFLYRSARIKELIKANPPAGLLYEASYRPYPGGGAAYELEIYLAVNECEGLPGGLYHYDPWQHELEKLTTRTSEVEGLLKYCSNAAGLKELPPVSLHITARFQRVAWKYQSLTYSVILKDVGALCQTLYLVATAMDLAPTAIGSGPAKLLCRIAGLNYLQESAVGEFILGNKRI”, the “soluble on expression in E. coli” value is listed as “not soluble”.

As for “MGAGASAEEKHSRELEKKLKEDAEKDARTVKLLLLGAGESGKSTIVKQMKIIHQDGYSLEECLEFIAIIYGNTLQSILAIVRAMTTLNIQYGDSARQDDARKLMHMADTIEEGTMPKEMSDIIQRLWKDSGIQACFDRASEYQLNDSAGYYLSDLERLVTPGYVPTEQDVLRSRVKTTGIIETQFSFKDLNFRMFDVGGQRSERKKWIHCFEGVTAIIFCVALSDYDLVLAEDEEMNRMHESMKLFDSICNNKWFTDTSIILFLNKKDLFEEKIKKSPLTICYPEYAGSNTYEEAGNYIKVQFLELNMRRDVKEIYSHMTCATDTQNVKFVFDAVTDIIIKENLKDCGLF”, the “soluble on expression in E. coli” value was “soluble”.

“GPGSMSHVKAFDPAAQARCDPYYKRNHMGHVVCTLCDVCCSDDNNFIKHLAGKTHSLQLERLERSANREKRLAEEEELNKEAMRRAEQEKATRELLLQQTSAPHASSVTSFAPFGRPEFHYCTEHDPELYQTKVWLEFYFPQAVEGARPLHRWRSAREQEVEKPPNDDVVYLLVACEGYMTVGLKFPSKLPRTSSGLTSWGGYGNAGSDEEKGRYRCSWDPVKKLYELFFIIG”: the “soluble on expression in E. coli” value was “soluble”.

“MAQRGRKPKPTALKILEGNPGKRPLNEDEPKPEKKAPKCPGWLDAEAKKEWRRMSKQLEAMGILTEIDMAAFAGYCQAYARWKEAEEFITKHGTIVKTPSGYWQQVPQVSIAQTYLKIMNRFCEQFGLTPSARSRIVTDNINDEEDPMELILYKGGSKSV”: the “soluble on expression in E. coli” value is recorded as “soluble”.

For the sequence “MGHHHHHHSHMNQSRSRSDGGSEETLPQDHNHHENERRWQQERLHREEAYYQFINELNDEDYRLMRDHNLLGTPGEITSEELQQRLDGVKEQLASQPDLRDGTNYRDSEVPRESSHEDSLLEWLNTFRRTGNATRSGQNGNQTWRAALPDTS”, the “soluble on expression in E. coli” value is “not soluble”.

For “MMQSGYRAPISRKSVVNTTPATPARTDRRTVSMAQQLLMPKATAVWLVDNTALSFDQIATFCKLHPLEVKAIADGEAAQGIKGLDPIATGQLSRDEIARAEGNPSHKLKLSEPKVRVPESKRRGPRYTPVSKRQDRPNAILWLVRNHPELKDAQISRLVGTTKSTIEQIRDRTHWNSANLTPMDPVTLGLCSQIDLDLEVERASRGRPLPTAEELGNTLQPATATEGLDYNNYQREEEQQIDADAVFKKLSSLKSAPKDEDEDDQYLEHHHHHH”, the “soluble on expression in E. coli” value is given as “soluble”.

Take “MVSYGSHSSEVSKVLKTPKFVLRYGNVSSKQRFALKRKINYKLRESKYQEYLNEYNTFVLYDWENSGAGSLVDSSYNLPSLWKEFITEGISKGAINDKLPTVFMKRKLTNSALGHCLGLDFLTDPSESEHEYRCMFQTVQDIPSLSQLILFNSMPNVPVRLKLHTIGININFGCKRSLISNGGDQDTEMSEAVSYIQPLLEESSRMYRNLNYWKLLKIARNNKKDEPLDQSTRIKSQVKLLLSQLATNRITSPSVTDHGGHNWLIFTRRRL”: the “soluble on expression in E. coli” value is reported as “not soluble”.

As for “MSDYENDDECWNVLEGFRVTLTSVIDPSRITPYLRQCKVLNPDDEEQVLSDPNLVIRKRKVGVLLDILQRTGHKGYVAFLESLELYYPQLYKKVTGKEPARVFSMIIDASGESGLTQLLMTEVMKLQKKVQDLTALLSSKDDFIKELRVKDSLLRKHQERVQRLKEECEAGSRELKRCKEENYDLAMRLAHQSEEKGAALMRNRDLQLEIDQLKHSLMKAEDDCKVERKHTLKLRHAMEQRPSQELLWELQQEKALLQARVQELEASVQEGKLDRSSPYIQVLEEDWRQALRDHQEQANTIFSLRKDLRQGEARRLRCMEEKEMFELQCLALRKDSKMYKDRIEAILLQMEEVAIERDQAIATREELHAQHARGLQEKDALRKQVRELGEKADELQLQVFQCEAQLLAVEGRLRRQQLETLVLSSDLEDGSPRRSQELSLPQDLEDTQLSDKGCLAGGGSPKQPFAALHQEQVLRNPHDAGLSSGEPPEKERRRLKESFENYRRKRALRKMQKGWRQGEEDRENTTGSDNTDTEGS”, the “soluble on expression in E. coli” value was “soluble”.

Regarding “MSLQVSLNPEWLARNNDEHKIRRNDHRSPFQRDRARILHSAAFRRLQAKTQVHGTSLNDFHRTRLTHSLEAAQIGTGIVAQIKLKQPEFRELLPSDSLIDSLCLAHDIGHPPYGHGGEIALNYMMRDHGGFEGNAQTFRIVTSLEPYTEHHGMNLSRRTLLGLLKYPALLSATRAAIPPPAVAHQRQLKAKDWSPAKGIYDCDLASLDWVLEPLCESDRELLGQMRAEPSSPKEHRKTRFKSLDCSIMELADDIAYGVHDLEDAIVLGMVTRAQWQEAAAAQLAECGDPWFEEHIAELSEMLFSGKHYVRKDAIGGIVNALLTSISVKPVEAPFHNELLAFNAYIEPHMGNALEVLKHFVSQYVIQIPQVQRFEYKGQQLIMDLFEALSADPERLLPQATGEKWRKAQEQDEGMRVICDYIAAMTDAYAQRLHQQLFSAQSHYEGGSHHHHHH”, the “soluble on expression in E. coli” value is “soluble”.

Regarding “MGSDKIHHHHHHMGHSLNAKYGLKRVINASGRMSILGVSAPTDTVMDAMKHGGQNYVEIADLVDKAGDHIARILDSEAAVVVNSASSGIALSIAAIVTEGNRRKSERLHQEVIAKNEVIMLKGHNVQYGAPVETMIYLGGGKLVEVGYANEGKAEHIEDAIGENTAAILYVKSHHAVQKNMISVEEAWEVAQRNNIPLIVDAAAEEDIQKYVKYADLAIYSGSKAIEGPTSGIVGGKRKYIEWLKVQLHCIGRSMKVGKETTFGLLQALDEYGVKEDKSEQEKELLQVLMPLKELNGVNVTIVQDEAGRAIFRARIHIDENELNKSAKDVVTALREGEIAIYTRDYGVRQGFFDIDPRPLLGDDIHVIEEKLREIVGGN”, the “soluble on expression in E. coli” value is listed as “not soluble”.

“MSTTFPLHTESFMLLDSGCLTNSDYFLPFALTDVLTTFSGMQHQPIIHFWQLDQAMILGMKDTRVPHLKEGIASLQENDYSVVVRNAGGLGVIADSGILNVSLILPNNSEHKLSIDAAYELMWAWLRQSFPEKEIDAFEITTSYCPGTYDLSIGGQKFAGIAQRRVKDGISVMIYISVNGNQLARGEVVRDFYLAGLQEQFGENGYPPVDPAVMANLETLIETPLTIDAVKTRLIEALPQQFEKSIDPNLTEPIITSEWFQTNLTVQLEKMAQRNALIKGEIL”: the “soluble on expression in E. coli” value is “not soluble”.
